Our source for the EC50 values is patent US20260234242A1 (HAINAN SIMCERE ZAIMING PHARMACEUTICAL, published 2026).

In the experiment the target is T1, his-tagged human CDH6 extracellular region protein (hCDH6 ECD-his) (human, UniProt P55285 19-615).
T1 construct: also called Human CDH6-his; hCDH6-his; not shown: his tag
T1 sequence: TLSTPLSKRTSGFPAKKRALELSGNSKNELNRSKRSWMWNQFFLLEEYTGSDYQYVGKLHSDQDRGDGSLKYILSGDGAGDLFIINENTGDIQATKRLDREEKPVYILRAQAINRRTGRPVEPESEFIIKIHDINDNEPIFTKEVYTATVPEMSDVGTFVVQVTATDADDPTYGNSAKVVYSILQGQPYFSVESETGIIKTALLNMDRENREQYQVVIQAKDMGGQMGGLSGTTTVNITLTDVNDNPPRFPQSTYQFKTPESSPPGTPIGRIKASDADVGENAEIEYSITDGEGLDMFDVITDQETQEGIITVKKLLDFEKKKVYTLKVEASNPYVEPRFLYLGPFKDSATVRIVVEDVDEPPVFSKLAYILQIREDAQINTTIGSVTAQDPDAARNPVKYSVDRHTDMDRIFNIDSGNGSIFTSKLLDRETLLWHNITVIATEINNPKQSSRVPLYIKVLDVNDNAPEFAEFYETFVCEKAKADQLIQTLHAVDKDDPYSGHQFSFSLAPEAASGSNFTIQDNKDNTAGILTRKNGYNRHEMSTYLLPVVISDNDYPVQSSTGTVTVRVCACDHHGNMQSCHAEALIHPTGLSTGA
Kind of experiment: ELISA, coated antigen; ELISA, hCDH6 ECD-his coated at 1 µg/mL, antibody in solution; chimeric antibody run (Table 5). As for the experimental part:
Human CDH6 protein (hCDH6 ECD-his, conventionally synthesized), monkey CDH6 protein (cynoCDH6 ECD-his, conventionally synthesized; the cynoCDH6 ECD sequence was derived from Uniprot #A0A2K5TW62 (19-615)), and murine CDH6 protein (mCDH6 ECD-his, conventionally synthesized; the mCDH6 ECD sequence was derived from Uniprot #P97326 (19-615)) were diluted with PBS to a final concentration of 1 μg/mL, and added to a 96-well ELISA plate at 100 μL/well. The plate was incubated at 4° C. overnight. The next day, the plate was washed 3 times with a plate washing solution (PBS+0.01% (v/v) Tween 20), and a blocking buffer (PBS+0.01% (v/v) Tween 20+2% (w/w) BSA) was added for blocking at room temperature for 2 h. The blocking buffer was discarded, and the plate was washed 3 times. The chimeric antibodies were diluted with 1% BSA+PBS (purchased from Cytiva, Cat. No. SH30264.01) and added to the 96-well plate at 50 μL/well. After incubation at 37° C. for 2 h, the plate was washed 3 times with a plate washing solution. […] The plate was incubated at 37° C. for 1 h and then washed 5 times with a plate washing solution. […] OD450 nm values were read using a microplate reader (Biotek). Analysis was performed by the GraphPad Prism software, data were fitted, and EC50 values were calculated. […]

B1: CHI-CDH6-14 (antibody, human IgG1, kappa, V domains shown)
VH: QIQLQQSGPELVKPGTSVKISCKASGYTFTDNYINWVRQRPGQGLEWIGWIYPGTGNSYYNEKFKGKATLTVDTSSSTAYMQFSSLTSEDSAVYLCASSYGDSFDYWGQGTTLTVSS
VL: DIQMTQTTSSLSASLGNRVTISCRASQDIRNYLNWYQQKPDGTFKLLISYTSRLHSGVPSRFSGSGSGTDYSLTVSNLEPEDIATYYCQQYSQLPWTFGGGSRLEIKR
notes: also called CHI-hCDH6-14; CH1-CDH6-14
In the case of B1, the EC50 turned out to be 0.044 nM.
